Measurements taken from patent publication US20210032312A1 (Janssen / Centocor, published 2021).
Numbering of substitutions follows the chain as printed.

B1: P282AR9P1356_A10 (designed binder)
chain: LPAPKNLVVSRVTEDSARLSWHTATNSFDSFLIQYQESEKVGEAIVLTVPGSERSYDLTGLKPGTEYTVSIYGVDVDYNPTGRPVSSNPLSAIFTT
notes: FN3 domain
B2: P282AR9P1356_B9 (designed binder)
chain: LPAPKNLVVSRVTEDSARLSWPEGDRPFFDSFLIQYQESEKVGEAIVLTVPGSERSYDLTGLKPGTEYTVSIYGVDVKWEGNRPVASNPLSAIFTT
notes: FN3 domain
B3: P283AR9P1362_G3 (designed binder)
chain: LPAPKNLVVSRVTEDSARLSWVKRATSFDSFLIQYQESEKVGEAIVLTVPGSERSYDLTGLKPGTEYTVSIYGVDVKWEGNRPVASNPLSAIFTT
notes: FN3 domain
B4: P282AR9P1356_A6 (designed binder)
chain: LPAPKNLVVSRVTEDSARLSWSKTDSSFDSFLIQYQESEKVGEAIVLTVPGSERSYDLTGLKPGTEYTVSIYGVDVVYIEGNPVFSNPLSAIFTT
notes: FN3 domain
B5: P283AR9P1362_C7 (designed binder)
chain: B3 chain with K77R, W78Y, E79N, G80E, N81G, R82Q, V84I, A85W
notes: FN3 domain
B6: P282AR9P1356_A4 (designed binder)
chain: B4 chain with S22V, T24R, D25P, S26N, Y78D, I79Y, N82R, V84R, F85W
notes: FN3 domain
B7: P283AR9P1362_F8 (designed binder)
chain: B3 chain with V22G, K23Y, R24Y, A25H, T26G, S27H
notes: FN3 domain
B8: P283AR9P1362_D7 (designed binder)
chain: LPAPKNLVVSRVTEDSARLSWVKRATSFDSFLIQYQESEKVGEAIVLTVPGSERSYDLTGLKPGTEYTVSIYGVDVKYDIDSRPISSNPLSAIFTT
notes: FN3 domain
B9: P283AR9P1362_A4 (designed binder)
chain: B8 chain with V22I, K23G, R24H, A25D, T26S, S27G
notes: FN3 domain
B10: P283AR9P1362_D3 (designed binder)
chain: LPAPKNLVVSRVTEDSARLSWPVESNAFDSFLIQYQESEKVGEAIVLTVPGSERSYDLTGLKPGTEYTVSIYGVDVEYDQHGRPRWSNPLSAIFTT
notes: FN3 domain
B11: P283AR9P1362_B8 (designed binder)
chain: B8 chain with V22W, K23T, R24S, A25P, T26L, S27P
notes: FN3 domain
B12: P283AR9P1362_C12 (designed binder)
chain: B8 chain with V22A, R24N, A25L, T26H
notes: FN3 domain
B13: P283AR9P1362_A3 (designed binder)
chain: B8 chain with V22K, K23R, R24I, A25D, T26S, S27P
notes: FN3 domain
B14: P282AR9P1356_H6 (designed binder)
chain: B10 chain with P22R, V23K, E24R, S25A, A27S, D75H
notes: FN3 domain
B15: P283AR9P1362_D4 (designed binder)
chain: B8 chain with K23R, R24E, A25H, T26D
notes: FN3 domain
B16: P282AR9P1356_D3 (designed binder)
chain: LPAPKNLVVSRVTEDSARLSWTRHETSFDSFLIQYRESEKVGEAIVLTVPGSERSYDLTGLKPGTEYTVSIYGVVVEYDAAGNPKYSNPLSAIFTT
notes: FN3 domain
B17: P282AR9P1356_H1 (designed binder)
chain: LPAPKNLVVSRVTEDSARLSWIPNPSSFDSFLIQYQESEKVGEAIVLTVPGSERSYDLTGLKPGTEYTVSIYGVDVVFDPVGFPSHSNPLSAIFTT
notes: FN3 domain

Biological target: T1, human CD8 alpha (CD8A) on primary human CD8+ T cells (human, UniProt P01732 22-235)
T1 construct: whole, on cells; also called hCD8A
Assay: flow cytometry, human CD8+ T cells, 0.2 uM FN3
Experimental: (§1) Binding of the 190 ELISA hits to human and cynomologous monkey primary CD8 T cells was assessed by flow cytometry. The FN3 domain molecules were diluted to 2 μM and 0.2 μM in PBS and incubated with human or cynomologous monkey CD8+ T cells in 96-well format. After 1 hour at 4 C, the cells were washed once with PBS and then resuspended with an anti-FN3 domain antibody (PAB25) solution. Following this incubation, the cells were washed twice with PBS and a PE conjugated secondary antibody and a viability dye were added. Finally, cells were washed and resuspended in PBS for flow cytometric analysis using a BD Canto Instrument. Cells were gating on live cells and median fluorescence intensity of the bound Centyrins (PE channel) was calculated using Cytobank software.

T1 sequence (P01732 22-235): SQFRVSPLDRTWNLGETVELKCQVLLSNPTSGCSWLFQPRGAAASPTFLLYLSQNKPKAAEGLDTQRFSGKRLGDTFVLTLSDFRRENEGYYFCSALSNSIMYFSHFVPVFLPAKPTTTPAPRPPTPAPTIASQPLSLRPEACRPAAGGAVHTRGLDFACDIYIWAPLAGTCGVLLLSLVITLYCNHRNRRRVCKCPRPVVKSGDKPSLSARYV

Binder | Human T-cell Binding 0.2 uM (MFI)
B1 | 2090
B2 | 3670
B3 | 4310
B4 | 3440
B5 | 2790
B6 | 4380
B7 | 3170
B8 | 3350
B9 | 2540
B10 | 3480
B11 | 1580
B12 | 2620
B13 | 1400
B14 | 2640
B15 | 2980
B16 | 2400
B17 | 3230

Biological target: T2, cynomolgus monkey CD8A on primary cynomolgus monkey CD8+ T cells (cynomolgus monkey, UniProt P01732 23-235 (human entry))
T2 construct: also called Cyno CD8alpha
Assay: flow cytometry, cyno CD8+ T cells, 0.2 uM FN3
Experimental: as §1

T2 sequence (P01732 other isoform, or with tags, fused parts or gaps limits assumed): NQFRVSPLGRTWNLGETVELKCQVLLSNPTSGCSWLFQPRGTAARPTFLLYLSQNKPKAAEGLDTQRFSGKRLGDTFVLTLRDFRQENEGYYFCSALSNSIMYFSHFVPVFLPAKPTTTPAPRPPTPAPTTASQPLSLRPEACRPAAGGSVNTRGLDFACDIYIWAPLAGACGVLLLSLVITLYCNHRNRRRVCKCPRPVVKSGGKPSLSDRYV

Binder | Cyno T-cell Binding 0.2 uM (MFI)
B1 | 3120
B2 | 5440
B3 | 9200
B4 | 5780
B5 | 5520
B6 | 8630
B7 | 4570
B8 | 4850
B9 | 4400
B10 | 6050
B11 | 2270
B12 | 3830
B13 | 3530
B14 | 3200
B15 | 4100
B16 | 3360
B17 | 5700

Biological target: T3, In house human CD8A-Fc (human, UniProt P01732 22-182, limits assumed)
T3 construct: Captured on goat anti-human Fc on a ProteOn GLC chip; also called hCD8A-Fc; recombinant human CD8 alpha; not shown: linker with flag (and polyhistidine) tag and Fc of human IgG1
Assay: SPR (ProteOn), captured hCD8A-Fc
Experimental: Purified anti-CD8A FN3 domains were subjected to off-rate analysis using a Proteon surface plasmon resonance instrument in order to pick clones with the slowest off-rates for further characterization.
The immobilized GAH-Fc IgG densities averaged about 6000 Response Units (Ru) with less than 1% variation among different channels. In house human CD8A-Fc was captured in vertical orientation at 3 different ligand densities, 10, 5, 2.5 μg/ml for 5 minutes at 30 ul/minute flowrate. All FN3 domains were normalized to a 3 μM concentration, and tested for binding in horizontal orientation. All 6 analyte channels were used for FN3 domains to maximize the screening throughput. The dissociation phase was monitored for 15 minutes at a flow rate of 100 μl/min using PBST as running buffer. […] Data analyses were performed using Bio-Rad ProteOn Manager software (version 3.1.0.6). Raw data were double referenced by subtraction of the interspot (empty chip surface, no protein immobilized or captured) signals to correct the non-specific binding of the FN3 domain to the pre-coated GAH-Fc IgG surface, followed by a double correction using empty channel L6 where no hCD8A-Fc was captured. The processed binding data were locally fit to a 1:1 simple Langmuir binding model to extract the koff for each FN3 domain binding to captured hCD8A-Fc.

T3 sequence (P01732 22-182 limits assumed): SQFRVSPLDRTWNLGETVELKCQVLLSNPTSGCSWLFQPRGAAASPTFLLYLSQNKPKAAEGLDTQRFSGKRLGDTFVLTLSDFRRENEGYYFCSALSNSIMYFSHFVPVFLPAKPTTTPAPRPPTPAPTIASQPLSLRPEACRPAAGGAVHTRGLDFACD

Binder | koff [s⁻¹]
B1 | 0.000291
B2 | 0.000295
B3 | 9.45e-05
B4 | 9.73e-05
B5 | 0.000186
B6 | 8.61e-05
B7 | 0.000112
B8 | 0.000118
B9 | 0.000302
B10 | 0.000125
B11 | 0.000648
B12 | 9.94e-05
B13 | 0.00153
B14 | 8.08e-05
B15 | 9.72e-05
B16 | 0.000158
B17 | 0.000114

Biological target: T2, cynomolgus monkey CD8A on primary …
Assay: flow cytometry, cyno CD8+ T cells, 2 uM FN3
Experimental: as §1

Binder | Cyno T-cell Binding 2 uM (MFI)
B1 | 10600
B2 | 36400
B3 | 35300
B4 | 31400
B5 | 19700
B6 | 26400
B7 | 23700
B8 | 27500
B9 | 21200
B10 | 34600
B11 | 12900
B12 | 14800
B13 | 17300
B14 | 14400
B15 | 25700
B16 | 13900
B17 | 46300

Biological target: T1, human CD8 alpha (CD8A) on primary human …
Assay: flow cytometry, human CD8+ T cells, 2 uM FN3
Experimental: as §1

Binder | Human T-cell Binding 2 uM (MFI)
B1 | 4260
B2 | 17200
B3 | 18500
B4 | 10800
B5 | 11000
B6 | 16700
B7 | 9200
B8 | 17300
B9 | 6310
B10 | 9500
B11 | 5740
B12 | 7060
B13 | 5540
B14 | 6650
B15 | 9830
B16 | 5960
B17 | 14700
